Test results as given in US20250163121A1 (AKSTON BIOSCIENCES, published 2025).

B1: insulin-Fc fusion protein of SEQ ID NO: 31 (SEQ ID NO: 26 with des hinge D and the mutation cNg-NB138-K; canine IgGB Fc fragment SEQ ID NO: 16) (Fc fusion)
chain: FVNQHLCGSDLVEALALVCGERGFFYTDPTGGGPRRGIVEQCCHSICSLYQLENYCNGGGGAGGGGCPKCPAPEMLGGPSVFIFPPKPKDTLLIARTPEVTCVVVDLDPEDPEVQISWFVDGKQMQTAKTQPREEQFKGTYRVVSVLPIGHQDWLKGKQFTCKVNNKALPSPIERTISKARGQAHQPSVYVLPPSREELSKNTVSLTCLIKDFFPPDIDVEWQSNGQQEPESKYRTTPPQLDEDGSYFLYSKLSVDKSRWQRGDTFICAVMHEALHNHYTQESLSHSPG
notes: Non-glycosylated homodimer made in HEK293 cells; 98.1% homodimer; also called cNg-K with des hinge D
B2: insulin-Fc fusion protein of SEQ ID NO: 26 (insulin polypeptide SEQ ID NO: 5, linker SEQ ID NO: 9, canine IgGB Fc fragment SEQ ID NO: 12) (Fc fusion)
chain: FVNQHLCGSDLVEALALVCGERGFFYTDPTGGGPRRGIVEQCCHSICSLYQLENYCNGGGGAGGGGDCPKCPAPEMLGGPSVFIFPPKPKDTLLIARTPEVTCVVVDLDPEDPEVQISWFVDGKQMQTAKTQPREEQFNGTYRVVSVLPIGHQDWLKGKQFTCKVNNKALPSPIERTISKARGQAHQPSVYVLPPSREELSKNTVSLTCLIKDFFPPDIDVEWQSNGQQEPESKYRTTPPQLDEDGSYFLYSKLSVDKSRWQRGDTFICAVMHEALHNHYTQESLSHSPG
notes: Disulfide-linked homodimer made in HEK293 cells; 93% homodimer
B3: insulin-Fc fusion protein of SEQ ID NO: 29 (SEQ ID NO: 26 with the mutation cNg-NB139-S; canine IgGB Fc fragment SEQ ID NO: 15) (Fc fusion)
chain: FVNQHLCGSDLVEALALVCGERGFFYTDPTGGGPRRGIVEQCCHSICSLYQLENYCNGGGGAGGGGDCPKCPAPEMLGGPSVFIFPPKPKDTLLIARTPEVTCVVVDLDPEDPEVQISWFVDGKQMQTAKTQPREEQFSGTYRVVSVLPIGHQDWLKGKQFTCKVNNKALPSPIERTISKARGQAHQPSVYVLPPSREELSKNTVSLTCLIKDFFPPDIDVEWQSNGQQEPESKYRTTPPQLDEDGSYFLYSKLSVDKSRWQRGDTFICAVMHEALHNHYTQESLSHSPG
notes: Non-glycosylated homodimer made in HEK293 cells; 98.3% homodimer; also called cNg-S
B4: insulin-Fc fusion protein of SEQ ID NO: 22 (insulin polypeptide SEQ ID NO: 5, linker SEQ ID NO: 9, canine IgGA Fc fragment SEQ ID NO: 11) (Fc fusion)
chain: FVNQHLCGSDLVEALALVCGERGFFYTDPTGGGPRRGIVEQCCHSICSLYQLENYCNGGGGAGGGGRCTDTPPCPVPEPLGGPSVLIFPPKPKDILRITRTPEVTCVVLDLGREDPEVQISWFVDGKEVHTAKTQSREQQFNGTYRVVSVLPIEHQDWLTGKEFKCRVNHIDLPSPIERTISKARGRAHKPSVYVLPPSPKELSSSDTVSITCLIKDFYPPDIDVEWQSNGQQEPERKHRMTPPQLDEDGSYFLYSKLSVDKSRWQQGDPFTCAVMHETLQNHYTDLSLSHSPG
notes: Disulfide-linked homodimer made in HEK293 cells

biological target: T1, human insulin receptor (on human IM-9 cells) (human, UniProt P06213 28-1382); test: competition with biotinylated RHI on human IM-9 cells, flow cytometry, 4 C
T1 construct: whole, on cells; Endogenous receptor on IM-9 cells; the mature receptor is a processed alpha2-beta2 tetramer from one precursor; also called IR
Procedure: Biotinylated-RHI was diluted in FACS staining medium to a concentration of 1.25 μg/mL. 40 μL of the serially diluted test compound and 8 μL of 1.25 μg/mL Biotin-RHI were added into each well of a V bottom microtiter plate, mixed by slow vortexing, and placed on ice. 40 μL of an IM-9 cell suspension (8×10^6 cells/mL) was then added to each well by multichannel pipette, mixed again gently and incubated on ice for 30 min to allow competitive binding on the insulin receptor on IM-9 cells. Cells were then washed twice with 275 μL of ice-cold FACS wash buffer (HBSS/2 mM EDTA/0.1% Na-azide+0.5% horse serum) by centrifuging the V-bottom plate at 3000 rpm for 3 min and aspirating the supernatant. Cells were then resuspended in 40 μL of FACS staining medium containing 1:100 diluted Streptavidin-PE (Life Technologies) for 20 min on ice. Cells were then washed once with 275 μL of ice-cold FACS buffer and finally fixed with 3% paraformaldehyde for 10 min at room temp. Cells were then washed once with 275 μL of ice-cold FACS buffer and resuspended in 250 μl of FACS buffer for analysis.
The V-bottom plates containing cells were then analyzed on a Guava 8-HT flow cytometer (Millipore). Biotinylated-RHI binding to insulin receptor was quantitated by the median fluorescence intensity (MFI) of the cells on the FACS FL-2 channel for each concentration of the test compound. Control wells were labeled only with biotinylated-RHI and were used to calculate the percent (%) inhibition resulting from each test compound concentration. The % inhibition by test compounds of biotinylated-RHI binding on IM-9 cells was plotted against log concentrations of the test compound, and the resulting IC50 values were calculated using GraphPad Prism (GraphPad Software, La Jolla, CA) for the test compounds. Lower IC50 values of the test compound therefore indicate greater levels of biotinylated-RHI inhibition at lower concentrations indicating stronger binding of the insulin-Fc fusion protein to the insulin receptor. A control compound, such as unlabeled recombinant human insulin (RHI) was also used as an internal standard to generate an RHI IC50 against which a given compound IC50 could be ratioed (IC50(compound)/IC50(RHI)). Lower IC50 ratios have more similar binding to RHI (stronger binding to insulin receptor), while higher IC50 ratios have weaker binding to the insulin receptor relative to RHI.

T1 sequence (P06213 28-1382): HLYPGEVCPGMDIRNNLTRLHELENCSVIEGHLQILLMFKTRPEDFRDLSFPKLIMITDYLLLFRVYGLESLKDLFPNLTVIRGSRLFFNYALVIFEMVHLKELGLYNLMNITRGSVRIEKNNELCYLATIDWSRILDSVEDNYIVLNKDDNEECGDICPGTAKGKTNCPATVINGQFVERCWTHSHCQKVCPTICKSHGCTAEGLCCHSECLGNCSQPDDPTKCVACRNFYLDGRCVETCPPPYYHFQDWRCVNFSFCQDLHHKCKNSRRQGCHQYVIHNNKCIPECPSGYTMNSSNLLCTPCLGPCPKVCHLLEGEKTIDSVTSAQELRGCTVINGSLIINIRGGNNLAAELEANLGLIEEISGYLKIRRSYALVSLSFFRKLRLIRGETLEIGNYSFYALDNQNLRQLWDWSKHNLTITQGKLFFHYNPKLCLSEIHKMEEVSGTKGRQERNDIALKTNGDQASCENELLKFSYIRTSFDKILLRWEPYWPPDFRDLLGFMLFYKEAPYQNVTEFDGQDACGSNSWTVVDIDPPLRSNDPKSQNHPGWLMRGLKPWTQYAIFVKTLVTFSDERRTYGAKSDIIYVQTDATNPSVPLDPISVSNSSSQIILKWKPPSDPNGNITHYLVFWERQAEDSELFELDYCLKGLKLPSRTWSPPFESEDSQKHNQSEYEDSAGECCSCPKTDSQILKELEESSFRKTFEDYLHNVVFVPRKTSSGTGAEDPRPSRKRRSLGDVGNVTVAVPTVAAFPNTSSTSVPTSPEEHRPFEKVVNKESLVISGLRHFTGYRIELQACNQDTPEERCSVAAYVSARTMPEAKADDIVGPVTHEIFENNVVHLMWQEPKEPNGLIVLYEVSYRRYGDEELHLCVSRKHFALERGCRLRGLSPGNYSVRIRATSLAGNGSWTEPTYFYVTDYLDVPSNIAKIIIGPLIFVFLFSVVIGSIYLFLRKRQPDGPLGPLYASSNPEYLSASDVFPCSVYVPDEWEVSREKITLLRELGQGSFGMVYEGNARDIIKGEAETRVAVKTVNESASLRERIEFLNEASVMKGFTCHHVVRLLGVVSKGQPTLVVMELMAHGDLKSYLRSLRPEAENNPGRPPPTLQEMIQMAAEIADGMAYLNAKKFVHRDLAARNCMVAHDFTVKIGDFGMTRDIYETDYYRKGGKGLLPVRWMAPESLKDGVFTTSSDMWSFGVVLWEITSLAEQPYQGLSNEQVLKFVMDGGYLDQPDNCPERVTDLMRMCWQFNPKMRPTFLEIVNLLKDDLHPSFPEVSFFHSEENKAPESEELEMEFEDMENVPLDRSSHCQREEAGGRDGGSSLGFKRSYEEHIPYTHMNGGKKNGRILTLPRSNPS

Binder	IC50 [nM]
B1	147
B2	28
B3	145
B4	2730
